Laboratory results from patent publication CN116003603A (CR BIO MEDICAL INC, dated 2023).
Numbering of substitutions follows the chain as printed. Values belong to the binder of their own block, whether it stands above or below them.

How the values were obtained:
[1] = target: T1, CLDN18.2 (antigen of the ka/kd/KD measurement, species and form not stated); experiment: affinity measurement, method not described (Table 2-2, headed P1530)
[2] = target: T2, CLDN18.2 (on CLDN18.2过表达细胞, species not stated); experiment: flow cytometry, antibody titration on CLDN18.2 over-expressing cells, MFI (Table 2-2, headed P1530)
T2 construct: whole, on cells

[3] = target: T1, CLDN18.2 (antigen of the ka/kd/KD …); experiment: affinity measurement, method not described
[4] = target: T2, CLDN18.2 (on CLDN18.2过表达细胞, species not …); experiment: flow cytometry, antibody titration on CLDN18.2 over-expressing cells, MFI

T1 sequence (P56856 other isoform, or with tags, fused parts or gaps): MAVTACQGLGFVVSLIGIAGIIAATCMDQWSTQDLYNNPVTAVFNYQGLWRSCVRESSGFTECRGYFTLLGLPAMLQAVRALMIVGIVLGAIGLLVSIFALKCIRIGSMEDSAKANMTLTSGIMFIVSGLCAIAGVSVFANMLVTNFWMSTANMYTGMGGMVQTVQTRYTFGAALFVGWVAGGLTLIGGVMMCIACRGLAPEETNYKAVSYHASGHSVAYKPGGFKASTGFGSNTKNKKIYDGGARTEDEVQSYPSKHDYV

- Kd [1]: 6.8 nM
- koff [1]: 0.00355 s⁻¹
- kon [1]: 523000 M⁻¹ s⁻¹
- EC50 [2]: 0.62 µg/mL
B1: CLDN-BC-P1530-hH1 (antibody, V domains shown)
VH: QVQLVESGGGLVQPGGSLRLSCAASRFTFSNYAMNWVRQAPGKGLEWVSSISGSGGSSYYADSVKGRFTISKDNSQNMLYLQMNSLRAEDTAVYYCAKADWKYGYYGMDVWGQGTTVTVSS
VL: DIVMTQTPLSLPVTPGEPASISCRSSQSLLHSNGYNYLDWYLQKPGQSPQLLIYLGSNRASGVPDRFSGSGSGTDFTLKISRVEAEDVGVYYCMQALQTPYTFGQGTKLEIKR
notes: also called P1530-IgG1

- Kd [3]: 5.9 nM
- koff [3]: 0.00293 s⁻¹
- kon [3]: 497000 M⁻¹ s⁻¹
- EC50 [4]: 0.69 µg/mL
B2: CLDN-BC-P1531-hH1 (antibody, V domains shown)
VH: B1 VH with T116M
VL: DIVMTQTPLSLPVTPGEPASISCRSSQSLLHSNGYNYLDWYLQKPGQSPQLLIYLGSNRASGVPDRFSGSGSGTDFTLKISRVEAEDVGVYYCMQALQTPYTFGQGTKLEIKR
notes: also called CLN-P1531-hH1; P1531-IgG1
